Measured values as given in article PMC6235889, “Conformational ensemble of the human TRPV3 ion channel” (Nature Communications, 2018).

Target: the molecule itself
Assay: cryo-EM structure; apo TRPV3 T96A in PMAL-C8 amphipol, 50 mM Tris pH 8, 150 mM NaCl; Titan Krios 300 keV; C4 symmetry, ~3.4 Å

B1: full-length human TRPV3 containing the point mutation T96A (natural protein, UniProt Q8NET8-1 1-790, looked up)
chain: MKAHPKEMVPLMGKRVAAPSGNPAILPEKRPAEITPTKKSAHFFLEIEGFEPNPTVAKTSPPVFSKPMDSNIRQCISGNCDDMDSPQSPQDDVTEAPSNPNSPSAQLAKEEQRRKKRRLKKRIFAAVSEGCVEELVELLVELQELCRRRHDEDVPDFLMHKLTASDTGKTCLMKALLNINPNTKEIVRILLAFAEENDILGRFINAEYTEEAYEGQTALNIAIERRQGDIAALLIAAGADVNAHAKGAFFNPKYQHEGFYFGETPLALAACTNQPEIVQLLMEHEQTDITSRDSRGNNILHALVTVAEDFKTQNDFVKRMYDMILLRSGNWELETTRNNDGLTPLQLAAKMGKAEILKYILSREIKEKRLRSLSRKFTDWAYGPVSSSLYDLTNVDTTTDNSVLEITVYNTNIDNRHEMLTLEPLHTLLHMKWKKFAKHMFFLSFCFYFFYNITLTLVSYYRPREEEAIPHPLALTHKMGWLQLLGRMFVLIWAMCISVKEGIAIFLLRPSDLQSILSDAWFHFVFFIQAVLVILSVFLYLFAYKEYLACLVLAMALGWANMLYYTRGFQSMGMYSVMIQKVILHDVLKFLFVYIVFLLGFGVALASLIEKCPKDNKDCSSYGSFSDAVLELFKLTIGLGDLNIQQNSKYPILFLFLLITYVILTFVLLLNMLIALMGETVENVSKESERIWRLQRARTILEFEKMLPEWLRSRFRMGELCKVAEDDFRLCLRINEVKWTEWKTHVSFLNEDPGPVRRTDFNKIQDSSRNNSKTTLNAFEEVEEFPETSV
notes: Transient receptor potential vanilloid channel 3 (TRPV3), human, full length, with the stabilising point mutation T96A; Homotetramer; Residues 1-117, which include T96A, were not resolved in the reconstructions; No removal of the FLAG tag is described; also called hTRPV3; TRPV3_(T96A); source: Sf9 insect cells (baculovirus), purified (anti-FLAG resin, size exclusion), reconstituted in PMAL-C8 …
stoichiometry N: 4
